Measurements as given in the supplement of paper PMC11502859.
Values joined by “and” are separate entries in the source; they are usually repeats but may differ in a detail not shown here. Equal entries are not always repeated.

Tested on: HEK293T
Test: median enrichment of reporter reads in eGFP-reduced (low/intermediate) vs eGFP-high sorted cells (eGFP-extension fusion abundance) (ratio); higher = stronger loss of eGFP-fusion protein abundance (more destabilising extension)
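Further: lentiviral eGFP-IRES-mCherry reporter pool sorted by FACS 96 h post-transduction, gated on mCherry-high cells, Illumina read counts normalized per million, median across four biological replicates.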

| Substance | median enrichment |
| --- | --- |
| WSPQHQGGPSLKRKEPTQVRGLPIPPSQVSTFALPPSHWGPCRSWSGLTVPSPGTQLKGPQPKL [CAND2] | 8.57 |
| WSPTRPERPEMVLTMLPANRSRKPACE [ANXA2] | 1.38 |
| WSQFPVTRTILATLFESIQVVWPMILLLTYLSTSSGPCPFGKLSFFLLHWGTGC [CLEC5A] | 9.24 |
| WSQLTSLSRKVYP [CD9] | 1.91 |
| WSRS [LCE3E] | 1.42 |
| WSSSSNSICKEHFSLKTCIWIIIITTF [CCDC148] | 3.42 |
| WSSSSSFIGLSGC [EDARADD] | 1.2 |
| WSSVVE [TMEM17] | 0.673 |
| WSTPAWYRHTQGLPCLHSPA [PDZD3] | 5.04 |
| WTAERTMHPSAWWSLRDRSDDPRRLWRTI [LILRA2] | 6.78 |
| WTGFAYLVLTLHHHHLMPTCPHPAELLSGHSLLLPFLLPLALPGPACTPVGWKCTAGSGSGSAPLWDPTFFSSLLLK [PTPN23] | 7.32 |
| WTHPLVVDRLPGTTIIPGPPRASEFETLAEIK [TBC1D7] | 4.38 |
| WTTNTQRNNLFTTPGCMIEGEASTSTSRGP [TTLL5] | 16.4 |
| WTYVLC [OR2L5] | 7.99 |
| WVAPPSWGEVPSRLRRRGARGRS [PHLDB3] | 16.2 |
| WVDGRNIFINQIESIYKNGSRILPQFFCQKVCIYVCIYIYLYIYMTDVF [GCC2] | 11.6 |
| WVEKKKKIKKQNKTHAPKK [NPIPB6] | 1.29 |
| WVGGISETGKVAALSHFFWNSWWSPGLGHCLSPACFFVRSGIISKCS [SLC35E2A] | 40.8 |
| WVKEEKPSTP [TAS2R19] | 0.336 |
| WVLIPTFPCDLGCRCSCCKMEANLTGVL [ADD2] | 6.13 |
| WVLSRAVEVPVIPAGAAATQSGRQGGEHLSATETNHSLFAQHASSSVLHSSPGSLSGSSTESFCSLKCWDA [CGNL1] | 8.11 |
| WVPSEVFIPACVI [VPS13B] | 13.3 |
| WVSAVLGTPAHSTLLEYLFPNATSVCFFLFPQSLSVSEPWAL [LALBA] | 10.8 |
| WVVGSPADGSTWTWG [GABARAPL1] | 6.43 |
| WWF [LRRCC1] | 1.79 |
| WWHELLASLDGQSKKKLVYFVQICHKLKAVTGEKD [PIWIL4] | 22.9 |

| Substance | median enrichment |
| --- | --- |
| WWLWLQRT [FAAH] | 11.2 |
| WWPRIPIEQHKARLG [RNF216] | 26.7 |
| WWRDTRGLATLWGNWHQELLHLVSAQVDLRKGWIPVPEHQIPRQLMRLAQCVTEAPGSQQSRAYSAHQAEQATGRDDASGQGS [CCDC137] | 7.53 |
| WWSCDVHEVLPHALEGSESRVNCPADILLGFLA [SLC7A6OS] | 8.62 |
| WWW [Trp03] | 2.55 |
| WWWRHAQWMILLLPATSTSRNESLGGCQELVLAPPPP [MAP4K1] | 13 |
| WWWW [Trp04] | 7.39 |
| WWWWW [Trp05] | 7.38 |
| WWWWWW [Trp06] | 3.74 |
| WWWWWWW [Trp07] | 3.21 |
| WWWWWWWW [Trp08] | 4.57 |
| WWWWWWWWW [Trp09] | 3.84 |
| WWWWWWWWWW [Trp10] | 4.65 |
| WYHMFSWYVN [ABHD10] | 5.5 |
| WYSFHYSI [BTN3A3] | 6.28 |
| WYTF [PNISR] | 2.74 |
| YAAIDSRSLYTVTSEDYT [SLC46A3] | 6.41 |
| YAATAKKNRVRKLLGWVDLGIFYLVKALYSHRRKIWDISIIYILI [RFPL3] | 45.1 |
| YAATDLGHLSQLAHPPPLPNFRYLSILLK [FBXL6] | 5.29 |
| YAKSRCTQHVLGMQPQEVPDLKQPDSYLA [GREM1] | 22.9 |
| YALDKNLNRKNNSKAYLMKQ [CYLC2] | 2.34 |
| YALGKKDCNQRKSIGVEEIKLTLFWLFF [GLI3] | 23.4 |
| YALNINSVLQIFITYLLQSQNPKIFIKSKYLMSFEGSLSYTK [C10orf88] | 1.47 |
| YALPSWPLISAWVDHPRLQRVEGGSSSWESF [TMEM214] | 7.05 |
| YAPL [SLC3A1] | 0.632 |
| YAPRR [OTUD6A] | 0.578 |

| Substance | median enrichment |
| --- | --- |
| YAQLAICKVTSAKFSFGSYPRAPMSSYQEVINVTPFHRLKGVITLLLG [PAFAH2] | 4.37 |
| YAQP [MST1] | 0.278 |
| YAQPGPQIRSAQQRPGPSSRTTRPHHASCSQTQN [CCDC27] | 0.132 |
| YARWLRNTGEASAFGKEICFGDDLSGNLNLLL [GBA3] | 5.41 |
| YASHLASWVCRSSRLAPSMYPGEIPARHPPPGPG [LSP1] | 4.74 |
| YASLAAGTSTWRS [CRB2] | 2.41 |
| YASRRRRRRGRAAGGTAQATQGRPLRPGGQGGRPASGDRLPPGLWQDVPSEGYFEEPPGPGDREAPVSSMNALPRTQARASGV [MSANTD1] | 1.01 |
| YATRRCPRPSRRRGSLAGAAPPCVRPAGAHVF [HHIPL1] | 11.3 |
| YAVGTESEYF [GFRA2] | 0.617 |
| YAVQSSFSGA [NLRP8] | 5.86 |
| YCLKGFY [GNL2] | 8.39 |
| YCLRGRLAASPAPPDLAPRAAAGAAACPGPPLRPASSRRPGAQPCAAEDSRDWRRPRPATAGARGHLPGLLTLSPHWEWAPRG [TMUB1] | 5.27 |
| YCLSILVHGCFERYGRQSPGHN [MAGEC3] | 5.24 |
| YCPGVCCLAHMSLL [CLSTN2] | 19.2 |
| YCPRAHRQLQGALVANKQHL [RAB3C] | 2.13 |
| YCRREVSSLCLVCNSSWA [REG3A] | 7.13 |
| YDFQKTLILFLKL [PRDM1] | 8.51 |
| YDGAVTERTQESGTPPGIPSTFSCSWERPGGGAHWEGQDSVPALILPCPDVSCFAQRSFLSTPLIPRLVPREGWRPGHGPSRR [ASIC4] | 4.69 |
| YDGGQIKVLAFRCL [KCNMB3] | 9.29 |
| YDGHISFIGE [CFLAR] | 0.753 |
| YDGR [ZNF772] | 0.299 |
| YDHPTTRSAANSGLSLGVAPSLLLPLN [TRIB3] | 6.29 |
| YDHSGQDHSGHGHGHSHGGHGHSH [S100A9] | 0.275 |
| YDLEFC [PQLC2L] | 0.999 |
| YDLIQHRNDSH [IFNA6] | 0.697 |
| YDPCGRPLPPSHRLPHHSCLVLGRPHCALALGLPSLLQQGTGALARVTD [GTF3C1] | 6.87 |

| Substance | median enrichment |
| --- | --- |
| YDSISP [CBLN4] | 0.384 |
| YDSLVL [ALDH5A1] | 0.258 |
| YDSNPDPGLIFQSPPSCGTASVC [NFKBID] | 4.34 |
| YDSPGLKLGSRPAR [PTGDS] | 3.48 |
| YDTP [CD1A] | 0.395 |
| YDVMLAGSPPLDPDSYG [SH3GL2] | 0.593 |
| YDVQRRLNKCTAE [VPS33A] | 0.744 |
| YEAPS [OR1L8] | 1.07 |
| YEAVMRMVL [SETDB1] | 4.84 and 3.68 |
| YEDPPEE [IGF1] | 2.17 |
| YEERDYLHIKNI [SLC35B1] | 0.713 |
| YEEVSATSPPEPAVIFTAPAHLSPTCSFDPWTWYTSMWSCWARGVLCAVNSVGSCSGVGARFLPPWAEGPFPLVLCPHPPPFS [KLHDC3] | 5.82 |
| YEGPSRRATQATVPVPAFPTPAVAPPHPLPLFVPFDERLFTGVGWRDGLEGAQSIRLQGPSWEK | 2.44 |
| YEHLDQVEKGTLSLVCGKQHLQEI [XKR6] | 0.3 |
| YEHLVKTRPSGPTMSAPSRGRDMACHSS [ITGB2] | 0.9 |
| YEISLPGWEERKWGCPGETRNLPSPGWGQGLC [HOXB13] | 3.71 |
| YEKCVVCGADSGHHVDSLALPQATSPGTIFLP [BTD] | 2.26 |
| YEKHFGILSIMILCYRHRECCIQ [FASLG] | 3.75 |
| YELEQLGNKLSTSRHLLSFAMCLMP [OR51A7] | 3.52 |
| YELNKNKIQV [CXorf66] | 0.339 |
| YELWGAHTPQSS [IL17A] | 1.09 |
| YEPEYSR [GBP4] | 0.833 |
| YEPYSFKPYVFLCAFFPYPSSLALPFLNTAAL [UBQLN3] | 7.8 |
| YEQCIT [DCTN6] | 2.67 |
| YEQGGLGWPSPGGCGWGQETQPTTAPVSSPHKAAWVCTVCKLQDTLPGDPRGHSYTLFTRKIQRSQ [C2orf50] | 9.09 |
| YEYA [BOD1L2] | 0.662 |

| Substance | median enrichment |
| --- | --- |
| YFFHKIC [CCDC102B] | 10.6 |
| YFFI [ATP2B1] | 9.67 |
| YFFLELKHPRMPLHVFHSPHLQTSLLFLTRPESKLPSLGNSGEGVSCTTYHTPSHPVSDFGMDSGKLGPSLNRVMYLNVCYFQ [HSPA1L] | 10.9 |
| YFLSVILP [GLB1L3] | 8.25 |
| YFMSFSISAADLC [DNAJC6] | 25.5 |
| YFNLCNLTNFHDK [NUP107] | 9.37 |
| YFSPFFSPEMKTTSPLSLWKQSSVLHTTRC [ARL1] | 11.4 |
| YFTIKVKQRKLYAGHICMRIQLFSGCSTTK [TMPRSS11A] | 9.64 |
| YFVLRTDFLPIPFLNIQRLYWPVSFYFFPPDKYFRS [STMN1] | 15.2 |
| YGAKRCLSEVGHFLKIQIFISLFRHGCLQVFHCLLLLEI [TMEM246] | 19.9 |
| YGAPTFDFYLSSSWIF [HMGA2] | 9.36 |
| YGDFPVQ [GPALPP1] | 0.42 |
| YGDNSPVSKPGCQIQ [KIR3DL2] | 3.37 |
| YGEKIRNGCCT [WDR64] | 0.76 |
| YGF [ITSN2] | 0.445 |
| YGFHKHP [SELP] | 1.36 |
| YGFKTFLLHSTNLTSF [SNED1] | 33.4 |
| YGFLGFPSWACLLKA [CSF3R] | 5.35 |
| YGFSPFGDHLSVSPTHYPICPPPQLGPRGPTLHFWGVTDFVHGFKVYFYGLVIAEFLFWGEGKGASPLLLALRPRRLLCAANC [TSPYL2] | 5.92 |
| YGFVVQD [EPM2AIP1] | 0.381 |
| YGGPVGEPGDSRV [CHRND] | 0.405 |
| YGIRLSCFKNVRESHILLMANCYINGNT [CBWD1] | 1.39 |
| YGLAKAPIEALCQ [PITHD1] | 1.66 |
| YGLQKNWPWGTKAFFSGLLPRP [KANK4] | 43.3 |
| YGPGTGGAHPATEHVRVLVLFRSPLSRCNFCSSSPTPAPSFMLLFRTQPPCPVLVVSR [STMN3] | 7.57 |
